Reference: paper PMC5814352 (Nature, 2018)

Molecular target: the molecule itself
Assay: crystal structure

B1: human DNMT3A (R836A) C-terminal domain (residues 628-912) (domain or fragment, UniProt Q9Y6K1-1 628-912, looked up)
chain: AEKRKPIRVLSLFDGIATGLLVLKDLGIQVDRYIASEVCEDSITVGMVRHQGKIMYVGDVRSVTQKHIQEWGPFDLVIGGSPCNDLSIVNPARKGLYEGTGRLFFEFYRLLHDARPKEGDDRPFFWLFENVVAMGVSDKRDISRFLESNPVMIDAKEVSAAHRARYFWGNLPGMNRPLASTVNDKLELQECLEHGRIAKFSKVRTITTASNSIKQGKDQHFPVFMNEKEDILWCTEMERVFGFPVHYTDVSNMSRLARQRLLGRSWSVPVIRHLFAPLKEYFACV
modifications: covalently bound to Zebularine of the 25-mer DNA
binding result: binds
